Consider two molecules from publication PMC10965808, “The alternative coproporphyrinogen III oxidase (CgoN) catalyzes the oxygen-independent conversion of coproporphyrinogen III into coproporphyrin III” (Frontiers in Microbiology, 2024).

Data set [1] addresses T1, YtpQ (CgoN) (Priestia megaterium, UniProt D5DN20).
T1 construct: gene BMD_4814; full length, 270 residues; codon-adapted synthetic gene in pGEX-6P-1, N-terminal GST tag cut off with PreScission protease; E. coli BL21(DE3); calculated 30,781 Da; monomer (35 kDa by GPC)
T1 sequence (D5DN20 1-270): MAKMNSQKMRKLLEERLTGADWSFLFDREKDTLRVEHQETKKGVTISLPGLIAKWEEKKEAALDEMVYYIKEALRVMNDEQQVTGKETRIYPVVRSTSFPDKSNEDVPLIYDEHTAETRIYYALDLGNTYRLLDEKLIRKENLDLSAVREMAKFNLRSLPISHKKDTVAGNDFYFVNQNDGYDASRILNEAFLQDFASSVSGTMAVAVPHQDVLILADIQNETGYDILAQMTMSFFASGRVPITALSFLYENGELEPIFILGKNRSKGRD
Put plainly: fluorescence assay, stimulation of activity by added FAD. It is filed as biochemical. The settings on record: 3 μM FAD; 1 μM enzyme; 10 μM coproporphyrinogen III; anaerobic; pH 7.2; 30°C; no menadione.

Substrate in data set [2]: Cc1c2[nH]c(c1CCC(=O)O)Cc1[nH]c(c(CCC(=O)O)c1C)Cc1[nH]c(c(CCC(=O)O)c1C)Cc1[nH]c(c(C)c1CCC(=O)O)C2
In words: purified protein. It is filed as biochemical, Priestia megaterium. As to conditions: anaerobic, 3 μM FAD, 5 μM menadione as electron acceptor, 1 μM enzyme, 1-20 μM substrate, HEPES pH 7.2, 0.02% Tween 80, 30°C.

Turning to `Cc1cc2nc3c(=O)[nH]c(=O)nc-3n(C[C@H](O)[C@H](O)[C@H](O)COP(=O)(O)OP(=O)(O)OC[C@H]3O[C@@H](n4cnc5c(N)ncnc54)[C@H](O)[C@@H]3O)c2cc1C` [FAD], the “fluorescence assay, stimulation of activity by added FAD” value in data set [1] is given as “FAD was identified as the electron-transferring cofactor of YtpQ”.

B1: YtpQ (CgoN) (Priestia megaterium DSM 319) (protein)
chain: T1 sequence (D5DN20 1-270)
notes: full length, 270 residues; codon-adapted synthetic gene in pGEX-6P-1, N-terminal GST tag cut off with PreScission protease; E. coli BL21(DE3); calculated 30,781 Da; monomer (35 kDa by GPC)
What is called Km is the concentration of substrate that gives half-maximal velocity. As a reminder, the kcat is the number of substrate molecules converted per active site and unit of time at saturation. For B1, in data set [2], the Km stood at 3.95 µM and the kcat came out at 0.0105 s⁻¹.
